Test results published in article doi:10.64898/2025.12.29.696898.

Molecular target: GFP-EBP2 (human) (UniProt Q99848)
Assay: FRET or BRET

UniProt Q99848, sequence (Q99848 whole entry): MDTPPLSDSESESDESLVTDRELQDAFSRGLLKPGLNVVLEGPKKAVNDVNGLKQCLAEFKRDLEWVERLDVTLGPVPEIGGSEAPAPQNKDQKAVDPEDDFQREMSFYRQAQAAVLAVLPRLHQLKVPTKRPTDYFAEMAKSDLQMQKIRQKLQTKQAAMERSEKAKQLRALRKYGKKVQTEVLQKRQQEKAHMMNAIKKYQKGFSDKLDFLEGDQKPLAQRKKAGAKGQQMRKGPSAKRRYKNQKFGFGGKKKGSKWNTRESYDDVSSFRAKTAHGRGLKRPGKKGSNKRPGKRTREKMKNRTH

“EBNA-1-DsRed (from UniProt P03211 1-641) (natural protein)” was tested, and the mean fluorescence intensity at 588 nm resulting from FRET was 167 and the mean ratio of fluorescence intensity (FI 588 nm/ FI 588 nm + FI 513 nm) was 0.4.
